In patent publication US20230265148A1:
Where “and” joins values, the source holds several entries; their conditions need not be identical. Identical values can stand only once.

Target: human IL-2 receptor αβγ trimer on CHO-K1 cells (CHO-K1 hIL-2R αβγ 2D6) (human) (UniProt P01589)
Assay: FACS on CHO-K1 hIL-2R αβγ 2D6 cells

UniProt P01589, sequence (P01589 22-272 limits assumed, chain 1 of 3): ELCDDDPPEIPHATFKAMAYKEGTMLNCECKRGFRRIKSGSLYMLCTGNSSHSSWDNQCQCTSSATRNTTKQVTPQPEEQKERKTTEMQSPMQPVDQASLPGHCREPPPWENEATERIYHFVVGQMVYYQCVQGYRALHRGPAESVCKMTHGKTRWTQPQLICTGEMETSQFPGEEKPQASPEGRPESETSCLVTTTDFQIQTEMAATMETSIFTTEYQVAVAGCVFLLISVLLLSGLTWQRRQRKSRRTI
UniProt P01589, sequence (chain, as listed by the source limits assumed, chain 2 of 3): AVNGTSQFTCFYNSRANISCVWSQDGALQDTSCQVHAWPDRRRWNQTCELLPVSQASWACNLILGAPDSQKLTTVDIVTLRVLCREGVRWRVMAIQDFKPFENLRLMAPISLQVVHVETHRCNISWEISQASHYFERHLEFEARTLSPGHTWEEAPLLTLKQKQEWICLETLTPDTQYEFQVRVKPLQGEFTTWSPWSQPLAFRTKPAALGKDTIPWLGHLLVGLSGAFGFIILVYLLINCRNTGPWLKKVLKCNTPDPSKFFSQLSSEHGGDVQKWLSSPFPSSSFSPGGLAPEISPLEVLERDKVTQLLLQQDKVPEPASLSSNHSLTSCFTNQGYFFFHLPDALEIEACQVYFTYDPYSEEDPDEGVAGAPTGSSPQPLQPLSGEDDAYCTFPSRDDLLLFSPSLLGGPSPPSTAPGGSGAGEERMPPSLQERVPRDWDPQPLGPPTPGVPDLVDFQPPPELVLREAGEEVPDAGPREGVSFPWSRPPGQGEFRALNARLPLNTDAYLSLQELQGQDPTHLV
UniProt P01589, sequence (chain, as listed by the source limits assumed, chain 3 of 3): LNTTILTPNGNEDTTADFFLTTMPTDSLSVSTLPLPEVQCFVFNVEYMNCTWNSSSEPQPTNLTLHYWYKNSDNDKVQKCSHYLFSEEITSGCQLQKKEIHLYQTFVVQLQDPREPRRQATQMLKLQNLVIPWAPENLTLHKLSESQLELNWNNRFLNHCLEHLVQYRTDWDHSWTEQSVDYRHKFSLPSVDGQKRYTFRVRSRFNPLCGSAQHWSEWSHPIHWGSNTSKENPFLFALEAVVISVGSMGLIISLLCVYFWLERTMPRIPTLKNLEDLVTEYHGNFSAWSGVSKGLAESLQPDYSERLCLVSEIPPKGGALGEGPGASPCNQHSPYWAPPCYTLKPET

MFI at 0.0003 nM: 146 MFI
MFI at 0.0017 nM: 120 MFI and 140 MFI
MFI at 0.0085 nM: 119 MFI and 145 MFI
MFI at 0.0427 nM: 274 MFI and 144 MFI
MFI at 0.2133 nM: 181 MFI and 139 MFI
MFI at 1.0667 nM: 157 MFI and 138 MFI
MFI at 5.3333 nM: 124 MFI and 136 MFI
MFI at 26.667 nM: 118 MFI and 187 MFI
Substance: Human IgG control (antibody)
